In one assay the target is T1, rDIII (West Nile virus, UniProt P06935).
T1 construct: rDIII – recombinant domain III; made in house; host or cells: E. coli M15
T1 sequence (P06935 584-692 limits assumed): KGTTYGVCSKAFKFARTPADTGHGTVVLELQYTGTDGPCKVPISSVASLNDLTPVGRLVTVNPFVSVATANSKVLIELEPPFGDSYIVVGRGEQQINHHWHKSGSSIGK
Kind of assay: ELISA of the binding of 7-mer cyclic and 12-mer linear peptides to rDIII. The settings on record: peptides coated through C-terminus in CovaLink NH plates; 1 µg rDIII; HisProbe-HRP; negative control subtracted. How it is done: The 7-mer cyclic and 12-mer linear peptides were covalently bound in CovaLink NH microwell plates and their binding to rDIII was corroborated by ELISA. Details are presented in Supplementary Method S11.
Confirmation of the binding of 7-mer cyclic and 12-mer linear peptides to rDIII by ELISA. The 7-mer cyclic and 12-mer linear peptides were covalently bound in CovaLink NH microwell plates overnight at 4°C as per the manufacturer´s instructions (Thermo Fischer Scientific).
Unbound peptides were washed with PBS (pH 7.4) and non-specific sites were blocked with 0.5% BSA in PBS for 1 h at room temperature. After blocking, wells were washed 2 times for 2 min with CovaBuffer (2 M NaCl, 40 mM MgSO4.7H2O, 0.05% Tween 20, PBS; pH 7.2). One microgram of rDIII diluted in 0.05% PBST was added in separate wells and incubated for 1 h at room temperature with constant shaking. Wells were washed 3 times for 2 min with CovaBuffer and interaction was detected with HisProbe-HRP conjugate (1:5,000 dilution in 0.1% BSA in PBST; Thermo Fisher Scientific) for 30 min at room temperature with constant shaking. After 6 washings, the chromogenic reaction was developed using a 1-Step Ultra TMB-ELISA substrate (Thermo Fisher Scientific). After 25 min, the reaction was stopped with 2 M H2SO4 and absorbance was measured at 450 nm. For negative controls, either rDIII or peptides were excluded from the protocol. The assay was performed in triplicates. […]
(ELISA stands for enzyme-linked immunosorbent assay.)

Assay [1] concerns the target T2, recombinant domain III (DIII) of the envelope (E) glycoprotein of West Nile virus (West Nile virus).
T2 chain: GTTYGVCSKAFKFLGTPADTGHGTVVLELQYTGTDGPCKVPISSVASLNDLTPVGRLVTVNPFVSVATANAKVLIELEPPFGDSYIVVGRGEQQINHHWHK
Kind of assay: ELISA; blocking ELISA: rDIII (2 µg, printed as 0.15 nM) pre-incubated 1 h at room temperature with a tenfold molar excess (1.5 nM) of peptide, then added to coated hBMEC proteins; negative control (no rDIII) subtracted. The settings on record: both partners purified.

The target in assay [2] is T2, recombinant domain III (DIII) of the …. Kind of assay: cell-based or functional assay.

Positions of bridges follow the written chain, without caps; N, C: chain ends. No end group written: not given here.

For “HYSWSWIAYSPG (HYSWSWIAYSPGGGGS; left off: His6, N-terminal, cleaved | 28 aa tag, N-terminal, cleaved) [LP19]”, in the assay with rDIII, the “A450, ELISA of peptide binding to rDIII” value was found to be 0.082.

B1: 7-mer cyclic peptide CP12 (ACX7CGGGS form of CTYENHRTC) (peptide)
peptide: ACTYENHRTCGGGS
modifications: disulfide 2-10 (inferred)
notes: additional alanine at the N-terminus (ACX7CGGGS); peptide of phage clone CC12; C-terminal linker; source: E. coli SHuffle T5, purified; N-terminal tag cleaved with enterokinase and removed on nickel beads; not shown: His6, N-terminal, cleaved; 28 aa tag, N-terminal, cleaved
For the molecule B1, in assay [1], the “A450 of rDIII on proteins of hBMECs after pre-incubation with the peptide” value (from here on “A450 of rDIII on proteins of hBMECs”) was 0.418 and the “percent inhibition of rDIII binding to proteins of hBMECs” value (“percent inhibition of rDIII binding” below) worked out at 61%. Also, in assay [2], the “neutralisation of infection of cultured cells by virus like particles (C, M and E proteins, luciferase reporter), EC50; the peptide blocks DIII binding to endothelial cells” value (shortened to “neutralisation”) was 10.4 nM.

B2: 7-mer cyclic peptide CP16 (ACX7CGGGS form of CLAQSHPLC) (peptide)
peptide: ACLAQSHPLCGGGS
modifications: disulfide 2-10 (inferred)
notes: additional alanine at the N-terminus (ACX7CGGGS); peptide of phage clone CC16; C-terminal linker; also called C16; source: E. coli SHuffle T5, purified; N-terminal tag cleaved with enterokinase and removed on nickel beads; not shown: His6, N-terminal, cleaved; 28 aa tag, N-terminal, cleaved
As to B2, in assay [1], the “A450 of rDIII on proteins of hBMECs” value was 0.427 and the “percent inhibition of rDIII binding” value came to 60%. Besides, the “neutralisation” value in assay [2] was found to be 14.8 nM.

B3: 12-mer linear peptide LP3 (X12GGGS form of SGVYKVAYDWQH) (peptide)
peptide: SGVYKVAYDWQHGGGS
notes: peptide of phage clone LC3; C-terminal linker; source: E. coli SHuffle T5, purified; N-terminal tag cleaved with enterokinase and removed on nickel beads; not shown: His6, N-terminal, cleaved; 28 aa tag, N-terminal, cleaved
B3: in assay [1], the “A450 of rDIII on proteins of hBMECs” value came to 0.647 and the “percent inhibition of rDIII binding” value came to 39%.

B4: 7-mer cyclic peptide CP2 (ACX7CGGGS form of CTKTDVHFC) (peptide)
peptide: ACTKTDVHFCGGGS
modifications: disulfide 2-10 (inferred)
notes: additional alanine at the N-terminus (ACX7CGGGS); peptide of phage clone CC2; C-terminal linker; source: E. coli SHuffle T5, purified; N-terminal tag cleaved with enterokinase and removed on nickel beads; not shown: His6, N-terminal, cleaved; 28 aa tag, N-terminal, cleaved
In the case of B4, in assay [1], the “A450 of rDIII on proteins of hBMECs” value stood at 0.117 and the “percent inhibition of rDIII binding” value came out at 89%. In addition, the “neutralisation” value in assay [2] worked out at 2.43 nM.

B5: 7-mer cyclic peptide CP15 (ACX7CGGGS form of CDPRHSKFC) (peptide)
peptide: ACDPRHSKFCGGGS
modifications: disulfide 2-10 (inferred)
notes: additional alanine at the N-terminus (ACX7CGGGS); peptide of phage clone CC15; C-terminal linker; source: E. coli SHuffle T5, purified; N-terminal tag cleaved with enterokinase and removed on nickel beads; not shown: His6, N-terminal, cleaved; 28 aa tag, N-terminal, cleaved
For B5, in assay [1], the “A450 of rDIII on proteins of hBMECs” value is 0.423 and the “percent inhibition of rDIII binding” value worked out at 60%.

B6: 7-mer cyclic peptide CP6 (ACX7CGGGS form of CMQTQRAHC) (peptide)
peptide: ACMQTQRAHCGGGS
modifications: disulfide 2-10 (inferred)
notes: additional alanine at the N-terminus (ACX7CGGGS); peptide of phage clone CC6; C-terminal linker; source: E. coli SHuffle T5, purified; N-terminal tag cleaved with enterokinase and removed on nickel beads; not shown: His6, N-terminal, cleaved; 28 aa tag, N-terminal, cleaved
As to B6, in assay [1], the “A450 of rDIII on proteins of hBMECs” value turned out to be 0.56 and the “percent inhibition of rDIII binding” value was determined as 47%.

B7: 7-mer cyclic peptide CP4 (ACX7CGGGS form of CIHSSTRAC) (peptide)
peptide: ACIHSSTRACGGGS
modifications: disulfide 2-10 (inferred)
notes: additional alanine at the N-terminus (ACX7CGGGS); peptide of phage clone CC4; C-terminal linker; source: E. coli SHuffle T5, purified; N-terminal tag cleaved with enterokinase and removed on nickel beads; not shown: His6, N-terminal, cleaved; 28 aa tag, N-terminal, cleaved
With B7, in assay [1], the “A450 of rDIII on proteins of hBMECs” value was 0.346 and the “percent inhibition of rDIII binding” value worked out at 67%. The “neutralisation” value in assay [2] is 17 nM.

The values above are taken from publication PMC8505397, “Development of peptides targeting receptor binding site of the envelope glycoprotein to contain the West Nile virus infection” (Scientific Reports, 2021).
